Substitutions are numbered along the chain they refer to.

T1: mouse Myl9 (myosin regulatory light chain polypeptide 9) (mouse, UniProt Q9CQ19 2-172)
T1 construct: Native protein in mouse bone marrow extract (BM lysate) or mouse tissues; also called Myl9/12
T1 sequence: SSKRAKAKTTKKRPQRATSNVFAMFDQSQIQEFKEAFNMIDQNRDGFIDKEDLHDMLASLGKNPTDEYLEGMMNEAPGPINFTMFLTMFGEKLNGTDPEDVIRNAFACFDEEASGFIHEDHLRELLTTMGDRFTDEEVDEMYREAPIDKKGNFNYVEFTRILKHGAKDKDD

T2: mouse Myl12b (myosin regulatory light chain polypeptide 12b) (mouse, UniProt Q3THE2 1-172, limits assumed)
T2 construct: Native protein in mouse bone marrow extract (BM lysate) or mouse tissues; also called Myl9/12
T2 sequence: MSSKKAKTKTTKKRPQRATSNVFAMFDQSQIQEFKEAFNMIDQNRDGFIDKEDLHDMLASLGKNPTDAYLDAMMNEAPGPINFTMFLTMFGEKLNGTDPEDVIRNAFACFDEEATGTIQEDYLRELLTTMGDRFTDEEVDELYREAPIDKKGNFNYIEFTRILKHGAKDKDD

B1: mouse Myl12a (myosin regulatory light chain polypeptide 12a) (ligand)
chain: T2 sequence with K5R, L61M, A68E, T115I
notes: Native protein in mouse bone marrow extract (BM lysate) or mouse tissues; also called Myl9/12
B2: 3xFlag mCD69EC treated with the deglycosylation enzyme PNGase F (receptor, mouse, UniProt P37217 62-199, looked up)
chain: NVGKYNCPGLYEKLESSDHHVATCKNEWISYKRTCYFFSTTTKSWALAQRSCSEDAATLAVIDSEKDMTFLKRYSGELEHWIGLKNEANQTWKWANGKEFNSWFNLTGSGRCVSVNHKNVTAVDCEANFHWVCSKPSR
modifications: N-glycans removed by PNGase F (500 U per 1 ug protein)
notes: extracellular domain; Same polypeptide as m2, after deglycosylation with N-glycosidase PNGase F; also called CD69EC previously treated with PNGase F; deglycosylated 3xFLAG mCD69EC; not shown: N-terminal 3xFlag tag from vector p3xFLAG CMV-9
B3: mouse CD69 extracellular domain protein having 3xFlag-tag added thereto (3xFlag mCD69EC) (receptor, UniProt P37217 62-199, looked up)
chain: B2 chain
notes: extracellular domain; also called mCD69EC protein; not shown: N-terminal 3xFlag tag from vector p3xFLAG CMV-9

Holding throughout (assay): immunoprecipitation with anti-Flag M2 antibody from bone marrow extract, immunoblot with anti-Myl9/12 antibody
The target in assay [1] is B3. Here is the method: (§1) Then, whether the binding of Myl9, Myl12a, and Myl12b with CD69 actually occurred was investigated. Firstly, mCD69EC sequence was inserted to p3xFLAG CMV-9 (Sigma-Aldrich Co. LLC.) having Flag tag incorporated at the N-terminal to produce an expression vector of mCD69EC sequence having Flag-Tag added at the N-terminal. The expression vector was transformed to 293 T cells to overexpress 3xFlag mCD69EC, and then a cell extract was prepared. As a control, a cell extract was prepared from 293 T cells overexpressing 3xFlag peptide. 3xFlag mCD69EC protein or 3xFlag peptide was purified from the cell extract using anti-[…] (SEQ ID NO: 21) tag antibody beads (Wako Pure Chemical Industries, Ltd.). In this case, […] is a peptide represented by a single letter code for an amino acid. Those purified proteins were each subjected to a reaction with a bone marrow extract (BM lysate) in the same manner as described above and the resultant products were subjected to immunoprecipitation using anti-Flag M2 antibody (Sigma-Aldrich Co. LLC.) and protein-G (GE Healthcare). After the immunoprecipitation was performed, the precipitates were separated by SDS-PAGE and transferred to a polyvinylidene difluoride (PVDF) membrane (Bio-Rad Laboratories, Inc.). Subsequently, immunoblotting was performed using an antibody which recognized Myl9, Myl12a, and Myl12b (hereinafter referred to as anti-Myl9/12 antibody). That is, each protein was detected by ChemiDocXRS+ (Bio-Rad Laboratories, Inc.) with ECL detection reagents (GE Healthcare) using rabbit anti-Myl9 antibody (Abcam plc.) as a primary antibody and horseradish peroxidase (HRP)-labeled anti-rabbit IgG antibody (Cell Signaling Technology, Inc.) as a secondary antibody. Deglycosylation treatment of the mCD69EC protein was performed by adding 500 U of N-glycosidase PNGase F (New England Biolabs Ltd.) to 1 μg of 3xFLAG mCD69EC.

The target of assay [2] is B2. As for the experimental part: as §1
The target in assay [3] is T1, mouse Myl9 (myosin regulatory light …). Here is the method:
as §1

The target of assay [4] is T2, mouse Myl12b (myosin regulatory light …). Here is the method: as §1

For B1, the binding result in assay [1] and in assay [2] was “binds” in each case.
In the case of B2, the binding result in assay [3] and in assay [4] was “binds” in each case.
B3: the binding result in assay [3] and in assay [4] was “binds” throughout.

The values are drawn from patent US20160102139A1 (NATIONAL UNIVERSITY CORPORATION CHIBA UNIVERSITY, published 2016).
